According to patent US9688764B2, “Methods of treating breast cancer by administering anti-human prolactin receptor (PRLR) antibodies” (REGENERON PHARMACEUTICALS, INC., priority 2013, dated 2017):
Read-outs that look alike come from different tables or passages of the source.

B1: H1H6782P-SMCC-DM1 (conjugate)
VH: EVQLVESGGGLVQPGRSLRLSCAASGFTFDDYAMHWVRQAPGKGLEWVSGIIWNSGHIGYGDSVKGRFTISRDNAKKSLYLQMNSLRAEDTALYYCARDSGRYQSYFDYWGQGTLVTVSS
VL: DIQMTQSPSTLSASVGDRVTITCRASHIISSWLAWYQQKPGKAPKVLIFKASSLESGVPSRFSGSGSGTEFTLTISSLQPDDFATYYCQQYNTYSRTFGQGTKVEIK
B2: H1H6782P-mc-VC-PAB-MMD (conjugate)
VH: B1 VH
VL: B1 VL
B3: H1H6782P-mc-VC-PAB-MeNHC3-May (conjugate)
VH: B1 VH
VL: B1 VL
B4: H1H6953N-mc-VC-PAB-MMAE (conjugate)
VH: EVQLLESGGGLVQPGGTLRLSCAASGFTFSAYAMSWVRQAPGKGLEWVSSINVRAGDTYYADSVKGRFTISRDNSKNTLFLLMNSLRAEDTAAYYCAKARYSSNWGFDFWGQGTLVTVSS
VL: DIVMTQSPDSLTVSLGARTTINCQSSQTILHSSNNHNYLAWYQQKPGLPPKLLIYWSSTRESGVPDRFSGSGSGTDFTLTISSLQAEDVAIYYCQQYSNTPYTFGQGTKLEIN
B5: H1H6953N-mc-VC-PAB-MMD (conjugate)
VH: B4 VH
VL: B4 VL
B6: H1H6953N-mc-VC-PAB-MeNHC3-May (conjugate)
VH: B4 VH
VL: B4 VL
B7: H1H6958N2-SPDB-DM4 (conjugate)
VH: QVQLVESGGGVVQPGRSLRLSCGASGFTFRNYGMQWVRQGPGKGLEWVTLISFDGNDKYYADSVKGRFTISRDNSKNTLFLQMNSLRTEDTAVYYCARGGDFDYWGQGTLVTVSS
VL: DIQMTQSPSSLSASVGDRVTITCRASQDIRKDLGWYQQKPGKAPKRLIYAASSLHSGVPSRFSGSGSGTEFTLTISSLQPEDFATYYCLQHNSYPMYTFGQGTKLEIK
B8: H1H6975P-SMCC-DM1 (conjugate)
VH: EVHLVESGGGLVQPGGSLRLSCAASGFTFSSYEMNWVRQTPGKGLEWISHISSRSVIIYYADSVKGRFTISRDNAKNSLFLQMNSLRAEDTAVYFCAGITIFGIPEYWGQGTLVTVSS
VL: EIVLTQSPATLSLSPGERATLSCRASQSVSSYFAWYQQKPGQAPRLLIYDASSRATGIPTRFSGSGSGTDFTLTISSLEPEDFAVYYCQQRSSWPITFGQGTRLEIK
B9: H1H6975P-mc-VC-PAB-MMD (conjugate)
VH: B8 VH
VL: B8 VL

Tests used:
[1] = test system: T47D cells; assay: Cell viability (cell kill) assay; format: cell-based; settings: T47D; for IC50: read-out: IC50
Method: (§1) Next, the ability of anti-PRLR-DM1 antibody-drug conjugates (i.e., anti-PRLR antibodies conjugated to DM1 via a non-cleavable linker [SMCC]) to reduce cell viability was determined using in vitro cell based assays. Cells were seeded in PDL-coated 96 well plates at 1500 to 10000 cells per well in complete growth media and allowed to grow overnight. For cell viability curves, ADCs or free DM1 (as the methyl disulfide derivative DM1-SMe) were added to the cells at final concentrations ranging from 500 nM to 5 pM and incubated for 3 days. The 293, PC3 and T47D cells were incubated with CCK8 (Dojindo, Rockville, Md.) for the final 1-3 hours and the absorbance at 450 nm (OD450) was determined on a Flexstation3 (Molecular Devices, Sunnyvale, Calif.). MCF7 cells were treated with Hoechst 33342 nuclear stain while being fixed with 4% formaldehyde. Images were acquired on the ImageXpress micro XL (Molecular Devices, Sunnyvale, Calif.) and nuclear counts were determined via Columbus image analysis software (Perkin Elmer, Shelton, Conn.). Background OD450 values (PC3, 293, and T47D) or nuclear counts (MCF7) from digitonin (40 nM) treated cells was subtracted from all wells and viability was expressed as a percentage of the untreated controls. IC50 values were determined from a four-parameter logistic equation over a 10-point response curve (GraphPad Prism).
Additionally, the impact of the PRLR ligand, PRL, on PRLR-SMCC-DM1 cell kill in T47D cells was assessed. T47D cells were incubated simultaneously with PRL (15 nM) and either a non-blocking anti PRLR antibody (H1H6782P) or a receptor blocking antibody (H1H6958N2).
(§2) Additional toxins (DM4, MeNHC3-May, and MMD) conjugated to anti-PRLR antibodies were also tested in T47D and MCF7/hPRLR cell lines, and results are summarized in Tables 19 (293 and T47D cell killing) and 20 (MCF7/ATCC and MCF7/PRLR cell killing). (ND=not detected).

[2] = test system: MCF7 (MCF7/ATCC) cells; assay: Cell viability (cell kill) assay, nuclear counts; format: cell-based; settings: MCF7/ATCC
Source text: (§3) PRLR-overexpressing cells, including HEK293, PC3, MCF7 and NCI-N87, were generated to assess the ability of anti-PRLR conjugated antibodies to reduce cell viability. For comparative purposes, PC3 and T47D cells with overexpressed ErbB2 were also generated, as well as an MCF7 cell line over-expressing both hPRLR and hErbB2. Briefly, Lipofectamine® 2000-mediated transfection methodology was utilized to generate HEK293 cells expressing human PRLR (HEK293/hPRLR) or human ErbB2 (HEK293/hErbB2). Lipofectamine LTX with Plus Reagent was used to generate PC3 cells expressing human PRLR (PC3/hPRLR) or human ErbB2 (PC3/hErbB2). Lentiviral-mediated transduction was utilized to generate MCF7 cells expressing human PRLR (MCF7/hPRLR), NCI-N87 cells expressing human PRLR (NCI-N87/hPRLR), T47D cells over-expressing human ErbB2 (T47D/hErbB2), and MCF7 cells expressing both human PRLR and human ErbB2 (MCF7/hPRLR/hErbB2). All lines were selected for at least two weeks in complete growth media plus appropriate selection reagents. Stably expressing populations were enriched for PRLR expression via FACS using the anti PRLR antibody Control I.
as §1
(§4) Finally, the potency of anti-PRLR antibodies conjugated to DM1 via the non-cleavable linker SMCC was compared to the cell killing potency of anti-PRLR antibodies conjugated to MMAE via the cleavable linker: mc-vc-PAB (available from Concortis, San Diego, Calif.). Cells used in this experiment were PC3, PC3/hPRLR, MCF7/ATCC and MCF7/PRLR.
as §2

[3] = test system: MCF7/hPRLR (MCF7/PRLR) cells; assay: Cell viability (cell kill) assay, nuclear counts; format: cell-based, human
Source text: as §3, §1, §4, §2

[4] = test system: HEK293 (293) cells; assay: Cell viability (cell kill) assay; format: cell-based
Source text: as §3, §1

[5] = test system: PC3/hPRLR cells; assay: Cell viability (cell kill) assay; format: cell-based, human; settings: PC3/hPRLR; Table 18
Source text: as §3, §1, §4

Molecule | % Kill ([1]; Table 19) [%] | IC50 ([1]; Table 19) [nM] | % Kill ([2]; Table 20) [%] | IC50 ([2]; Table 20) [nM] | % Kill ([3]; Table 20) [%] | IC50 ([3]; Table 20) [nM] | % Kill ([4]; 293, Table 19) [%] | IC50 ([4]; 293, Table 19) [nM] | IC50 ([1]; Table 13, + 15 nM PRL) [nM] | IC50 ([1]; Table 13, without PRL) [nM] | IC50 ([4]; HEK293, Table 13, + 15 nM PRL) [nM] | IC50 ([4]; HEK293, Table 13, without PRL) [nM] | % Kill [5] [%] | IC50 [5] [nM] | % Kill ([2]; Table 18) [%] | IC50 ([2]; Table 18) [nM] | % Kill ([3]; Table 18) [%] | IC50 ([3]; Table 18) [nM]
COc1cc2cc(c1Cl)N(C)C(=O)CC(OC(=O)C(C)N(C)C(=O)CCSSC)C1(C)OC1C(C)C1CC(O)(NC(=O)O1)C(OC)C=CC=C(C)C2 (stereo not shown) [Free DM1 (Me-SS-May)] | 100 | 1.5 | 80 | 1.3 | 80 | 0.8 | 95 | 1.2 |  |  |  |  |  |  |  |  |  | 
B1 | 100 | 3 | 70 | 250 | 80 | 0.3 | 80 | 120 | 2 | 1 | 70 | 90 |  |  |  |  |  | 
B2 | 90 | 2 | 50 | 200 | 90 | 0.3 | 70 |  |  |  |  |  |  |  |  |  |  | 
B3 | 90 | 2 | 50 | 250 | 80 | 0.2 | 90 |  |  |  |  |  |  |  |  |  |  | 
B4 | 80 | 1 | 40 | 150 | 85 | 0.1 |  |  |  |  |  |  | 80 | 0.2 | 42 | 150 | 85 | 0.1
B5 | 90 | 1 | 50 |  | 90 | 0.2 | 70 |  |  |  |  |  |  |  |  |  |  | 
B6 | 90 | 1 | 60 | 150 | 80 | 0.2 |  |  |  |  |  |  |  |  |  |  |  | 
B7 | 100 | 1 | 80 | 25 | 90 | 0.8 |  |  |  |  |  |  |  |  |  |  |  | 
B8 | 100 | 2 | 70 | 200 | 80 | 0.2 | 90 | 80 |  |  |  |  |  |  |  |  |  | 
B9 | 90 | 3 | 50 | 150 | 90 | 0.2 | 80 |  |  |  |  |  |  |  |  |  |  | 
